This is an account of results in article PMC3154745 (Chembiochem : a European journal of chemical biology, 2011).

The labels stand for the following.
T1: HP1a-CSD A174E (residues 131-206) (D. melanogaster, UniProt P05205 131-206, A174E)
T1 sequence (looked up): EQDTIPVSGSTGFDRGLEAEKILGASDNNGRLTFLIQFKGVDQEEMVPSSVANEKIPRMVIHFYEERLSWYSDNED

T2: HP1a-CSD I191E (residues 131-206) (D. melanogaster, UniProt P05205 131-206, I191E)
T2 sequence (looked up): T1 sequence (looked up) with E44A, I61E

B1: HP1a-CSDΔ204 (residues 131-203) (domain or fragment, D. melanogaster, UniProt P05205 131-203, looked up)
chain: EQDTIPVSGSTGFDRGLEAEKILGASDNNGRLTFLIQFKGVDQAEMVPSSVANEKIPRMVIHFYEERLSWYSD
B2: HP1a-CSD (residues 131-206), wild type (domain or fragment, D. melanogaster, UniProt P05205 131-206, looked up)
chain: T1 sequence (looked up) with E44A
B3: HP1a-CSD W200A (residues 131-206) (domain or fragment, D. melanogaster, UniProt P05205 131-206, looked up)
chain: T1 sequence (looked up) with E44A, W70A
B4: HP1a-CSD S199E S202E double mutant (residues 131-206) (domain or fragment, D. melanogaster, UniProt P05205 131-206, looked up)
chain: T1 sequence (looked up) with E44A, S69E, S72E
B5: HP1a-CSD E195Q (residues 131-206) (domain or fragment, D. melanogaster, UniProt P05205 131-206, looked up)
chain: T1 sequence (looked up) with E44A, E65Q

Positions count from the first letter of the chain named. Names may count otherwise. Read-outs that look alike come from different tables or passages of the source. Primed or numbered codes have the meaning given here. No end group written: not given here. fluorescein″ = fluorescein label at the N-terminus of the peptide; fluorescein = fluorescein group at the N-terminus

Data set [1] concerns the molecule itself. As to the kind of experiment: AUC.
Data set [2] deals with the molecule itself. As to the kind of experiment: AUC. The source holds these as a separate data set.
The target of data set [3] is B2. The experiment in a line: fluorescence polarisation. (Polarisation of emitted light reports the rotation of a fluorescent probe.)
Data set [4] deals with the molecule itself. The experiment in a line: AUC. This is another data set of the same source.
Data set [5] concerns the molecule itself. The experiment in a line: SEC. On the technique in general: Size exclusion chromatography separates by hydrodynamic size, large species first.
In data set [6] the target is B4. The experiment in a line: fluorescence polarisation.
Data set [7] deals with B5. As to the kind of experiment: fluorescence polarisation.
In data set [8] the target is B3. The experiment in a line: fluorescence polarisation.
Data set [9] addresses T1, HP1a-CSD A174E (residues 131-206). As to the kind of experiment: fluorescence polarisation.
Data set [10] deals with T2, HP1a-CSD I191E (residues 131-206). The experiment in a line: fluorescence polarisation.
Data set [11] has as its target B1. The experiment in a line: fluorescence polarisation.
For data set [12], the target named is B2. The experiment in a line: fluorescence polarisation. This is another data set of the same source.
Data set [13] concerns the target B2. As to the kind of experiment: NMR titration.

Regarding B1, the affinity in [1], expressed as Kd, was 2 ± 0.2 µM.
As to B2, the values for the Kd in [1] and in [2] were 3 ± 0.2 µM and 1.6 ± 0.4 µM, respectively.
Consider {fluorescein″}-QNISPRKLCVKINRRPYNKWLR [HP2 peptide wild type (LCVKI), N-terminal fluorescein], for which the dissociation constant (Kd) (usually the constant that tells how readily two partners part at equilibrium) in [3] worked out at 0.14 ± 0.07 µM.
Take B3: binding in [4] was characterised by a dissociation constant (Kd) of 5.8 ± 0.6 µM. For the same molecule, the stoichiometry N (in general, a count of units in the complex or per binding partner) in data set [5] came to 2.
As to fluorescein-QNISPRKLSVKINRRPYNKWLR [HP2 peptide Cys to Ser mutant (LSVKI), N-terminal fluorescein], the equilibrium dissociation constant (Kd) in [6] was 0.044 ± 0.007 µM; in data set [3], 0.3 ± 0.02 µM; in data set [7], 3.7 ± 0.4 µM; in [8] it was > 500 µM; in [9], 1.26 ± 0.12 µM; in data set [10] it was > 400 µM. In data set [11], binding was put at a Kd of 4.9 ± 0.6 µM.
{fluorescein″}-PATTSPLVVLSNQLPLNSVAASY [AF10 peptide, N-terminal fluorescein]: in [12], the binding result is listed as “binds”.
On to {fluorescein″}-SEGRRLYPLLPRISPQTALSIVANDLAESD [CG15356 peptide, N-terminal fluorescein], for which the binding result in data set [12] is recorded as “binds”.
In data set [1], B4 came in with a Kd of 19 ± 1 µM.
Consider fluorescein-TSRGSGDPRVKVFRGSSSGDY [PIWI peptide, N-terminal fluorescein], for which the dissociation constant Kd in data set [6] is 1.7 ± 0.1 µM; in [3], 20 ± 0.5 µM; in [7], 97 ± 12 µM; in [8], > 2000 µM; in [9] it was 101 ± 6 µM; in [10] it was > 2000 µM. Further, the affinity in data set [11], expressed as Kd, was 60 ± 2 µM.
Molecule B5 showed a Kd in data set [1] of 4.3 ± 0.4 µM.
As for TSRGSGDPRVKVFRGSSSGDY [PIWI peptide as used in NMR], the binding result in data set [13] is reported as “binds”.
